Results from PMC10046460, “Phase I Trial of [^99mTc]Tc-maSSS-PEG2-RM26, a Bombesin Analogue Antagonistic to Gastrin-Releasing Peptide Receptors (GRPRs), for SPECT Imaging of GRPR Expression in Malignant Tumors” (Cancers, 2023).
Where two headings read alike, the source gives them in different places. Each block holds one compound with its values, some of them ahead of it. Square brackets hold non-standard residues; d marks the D form. Peptide text beside a SMILES is read from it. * marks the point of attachment. Sta = CC(C)C[C@H](N)[C@@H](O)CC(=O)O; Mercaptoacetyl = O=C(CS)*; AEEA = NCCOCCOCC(=O)O

How the values were obtained:
[1] = in vivo; cited from earlier work
Description: The biodistribution of [^99mTc]Tc-maSSS-PEG2-RM26 was characterized by the rapid whole body elimination and blood clearance of unbound tracers (Figure 4). This decreases the background caused by the blood-borne activity and creates preconditions for high-contrast imaging. The clinical trial confirmed the major feature of the tracer found in the preclinical studies, a substantial degree of hepatobiliary excretion. The hepatobiliary excretion of [^99mTc]Tc-maSSS-PEG2-RM26 was the highest among other GRPR antagonists tested in clinics and was similar to the excretion of [^99mTc]Tc-RP527, a ...

[2] = biological target: T1, gastrin-releasing peptide receptor (GRPR) (Homo sapiens, UniProt P30550); assay: SPECT/CT imaging of tumor uptake in PCa patients; format: in vivo; conditions: for SUVmax: prostate tumor, 40 µg iv; for SUVmax / Ratio SUVmax in Tumor to Background: 2 h post administration
T1 construct: from tissue; host or cells: primary prostate cancer, primary breast cancer and axillary lymph-node metastases in living patients
Method: (§1) A single-center diagnostic phase I open-label exploratory study (ClinicalTrials.gov ID NCT04746638) was conducted at the Cancer Research Institute, Tomsk National Research Medical Center of the Russian Academy of Sciences, and the initial protocol was approved by the Institute’s Scientific Council and Board of Medical Ethics (protocol 14, approved 21 December 2020). Patients (18–70 y) with clinically and radiologically diagnosed (with histological verification) PCa or BCa were included in this study after providing written informed consent. Criteria for inclusion were: the ability to undergo planned diagnostic investigations; patient’s hematological, liver, and renal function test results within the normal limits; and a negative pregnancy test for BCa patients. The exclusion criteria included contraindications to surgical intervention due to severe concomitant pathology; a second malignancy (non-breast or non-prostate); activity/history of autoimmune disease, hepatitis B or C, HIV, or infectious diseases within the preceding 3 months; participation in other clinical studies; and ongoing toxicity over grade 2 from previous standards or investigational therapies. Additionally, for PCa patients, exclusion criteria were androgen deprivation therapy over 3 months, and for BCa patients, exclusion criteria were HER2-positive or non-luminal cancer, in situ T0 and T3-4 tumors, the presence of distant metastases, and history of chemo- and/or hormone-therapy. Six male PCa and seven female BCa patients were included in the study (Figure 1 and Figure 2).
(§2) Patients were injected with [^99mTc]Tc-maSSS-PEG2-RM26 (40 µg of maSSS-PEG2-RM26 labeled with 640 ± 165 MBq for PCa and 695 ± 120 MBq for BCa patients per injection) as a single intravenous bolus. Imaging was performed using a hybrid system (Symbia Intevo T16), equipped with a dual-head gamma camera and an integrated 16-slice CT scanner. For imaging, a low-energy high-resolution collimator was used. Patients underwent whole-body planar images (anterior and posterior, with a of scan speed 12 cm/min in a 1024 × 256 pixel matrix) and SPECT-CT acquisition (32 projections, 30 s each, in a 128 × 128 pixel matrix) and a low-dose CT (140 kVp, 20 mAs/slice in a 512 × 512 pixel matrix) were performed 2, 4, 6, and 24 h after injection. The images were transferred to a Syngo.via (Siemens) workstation for analysis.

[3] = biological target: T1, gastrin-releasing peptide receptor (GRPR); assay: SPECT/CT imaging of tumor and LN metastasis uptake in BCa patients; format: in vivo; conditions: for SUVmax, tumor (T) / SUVmax, single LN metastasis (LNM): 2 h post administration, 40 µg iv; for median activity accumulation (SUVmax): 2 h after injection, Me [Q1–Q3]
Method: as §1, §2

[4] = clinical; conditions: human, in vivo; for tissue uptake dose at 2 h / tissue uptake dose at 4 h / tissue uptake dose at 6 h / tissue uptake dose at 24 h: iv, 40 ug, total radioactivity, Distribution, SD
Method: as §2
(§3) The geometric means of counts in the regions of interest (ROIs) drawn over organs and the whole body for anterior and posterior projections were calculated for every time point. An ROI for the heart was used to estimate activity concentrations in the blood. Quantification was performed as described previously. Absorbed doses for individual organs, effective doses, and effective dose equivalents were calculated in OLINDA/EXM 1.1 (adult male phantom for PCa and adult female phantom for BCa) using average residence times derived from activity distributions over time fitted to a single exponential using Prism 9.2.0 (GraphPad Software, LLC, Boston, MA, USA).

[5] = parameters: species or system human; conditions: in vivo
Method: as §3

[6] = test system: prostate-specific membrane antigen (PSMA); conditions: PCa patients; cited from earlier work
Method: Prostate and breast cancers are the most common sex-related malignancies, with an increasing incidence in many countries over the past 30 years. Accurate diagnosis and staging of the diseases are important for the prognosis and determination of treatment tactics for these pathologies. […] Many derivatives of this pseudo-peptide were tested clin ...

T1 sequence (P30550 whole entry): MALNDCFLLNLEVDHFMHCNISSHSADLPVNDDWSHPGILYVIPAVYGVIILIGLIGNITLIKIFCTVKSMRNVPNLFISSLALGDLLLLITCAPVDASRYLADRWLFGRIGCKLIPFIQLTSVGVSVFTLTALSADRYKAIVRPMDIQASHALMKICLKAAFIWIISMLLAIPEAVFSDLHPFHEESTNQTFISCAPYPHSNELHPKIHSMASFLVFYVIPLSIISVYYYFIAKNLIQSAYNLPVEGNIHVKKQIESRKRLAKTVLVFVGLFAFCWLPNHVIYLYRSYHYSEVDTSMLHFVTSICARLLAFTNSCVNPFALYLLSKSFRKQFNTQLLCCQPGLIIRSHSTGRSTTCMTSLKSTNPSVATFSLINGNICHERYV

Compound: D-Phe-Gln-Trp-Ala-Val-Sar-His-Sta-Leu-NHEt [[^99mTc]Tc-DB15, ^99mTc-labeled BN antagonist for SPECT, tested in two patients]
route of excretion [1]: Predominantly renal excretion

SUVmax ([2]; PCa patient P2, SPECT/CT): 0.78 (1.7 × 2) | SUVmax ([2]; PCa patient P3, SPECT/CT): 1.21 (4.1 × 2.8) | SUVmax ([2]; PCa patient P4, SPECT/CT): 1.14 (1.8 × 2.0) | Ratio SUVmax in Tumor to Background ([2]; PCa patient P5): No accumulation | SUVmax ([2]; PCa patient P5, SPECT/CT): No accumulation | Ratio SUVmax in Tumor to Background ([2]; PCa patient P6): No accumulation | SUVmax ([2]; PCa patient P6, SPECT/CT): No accumulation | patients with uptake in tumors identified ([2]; PCa patients, SPECT/CT): four out of six | median activity accumulation (SUVmax) ([2]; prostate tumors, 2 h after injection, Me [Q1–Q3]): 1.18 [0.78–1.67] | SUVmax, tumor (T) ([3]; BCa patient B1, SPECT/CT): T: 1.41 (2.8 × 2.2) | SUVmax, single LN metastasis (LNM) ([3]; BCa patient B2, SPECT/CT): 1.8 | SUVmax, tumor (T) ([3]; BCa patient B2, SPECT/CT): 1.75 | SUVmax, single LN metastasis (LNM) ([3]; BCa patient B3, SPECT/CT): 1.8 | SUVmax, tumor (T) ([3]; BCa patient B3, SPECT/CT): 0.87 | SUVmax, single LN metastasis (LNM) ([3]; BCa patient B4, SPECT/CT): 0.58 | SUVmax, tumor (T) ([3]; BCa patient B4, SPECT/CT): 0.57 | SUVmax, single LN metastasis (LNM) ([3]; BCa patient B5, SPECT/CT): 1.8 | SUVmax, tumor (T) ([3]; BCa patient B5, SPECT/CT): 0.87 | SUVmax, tumor (T) ([3]; BCa patient B6, SPECT/CT): T: 0.43 (1.5 × 1.5) | SUVmax, tumor (T) ([3]; BCa patient B7, SPECT/CT): T: 0.50 (1.5 × 1.4) | patients with high uptake in axillary LN ([3]; BCa patients, SPECT/CT): four BCa patients | patients with increased accumulation in the tumor ([3]; BCa patients, SPECT/CT): seven out of seven | median activity accumulation (SUVmax) ([3]; LN metastases in BCa patients): 1.8 [0.58–1.8] | median activity accumulation (SUVmax) ([3]; breast tumors): 0.87 [0.43–1.75]
Compound: CC(C)C[C@H](NC(=O)C[C@H](O)[C@H](CC(C)C)NC(=O)[C@H](Cc1c[nH]cn1)NC(=O)CNC(=O)[C@@H](NC(=O)[C@H](C)NC(=O)[C@H](Cc1c[nH]c2ccccc12)NC(=O)[C@H](CCC(N)=O)NC(=O)[C@@H](Cc1ccccc1)NC(=O)COCCOCCNC(=O)[C@H](CO)NC(=O)[C@H](CO)NC(=O)[C@H](CO)NC(=O)CS)C(C)C)C(N)=O [[^99mTc]Tc-maSSS-PEG2-RM26, metal not drawn] (Mercaptoacetyl-SSS[AEEA][dF]QWAVGH[Sta]L-NH2)
tissue uptake dose at 2 h ([4]; female, Gall bladder): 5 ± 5 %ID | tissue uptake dose at 4 h ([4]; female, Gall bladder): 5 ± 4 %ID | tissue uptake dose at 6 h ([4]; female, Gall bladder): 4 ± 3 %ID | tissue uptake dose at 24 h ([4]; female, Gall bladder): 0.3 ± 0.1 %ID | tissue uptake dose at 2 h ([4]; female, Jejunum): 21 ± 9 %ID | tissue uptake dose at 4 h ([4]; female, Jejunum): 25 ± 17 %ID | tissue uptake dose at 6 h ([4]; female, Jejunum): 13 ± 10 %ID | tissue uptake dose at 24 h ([4]; female, Jejunum): 3 ± 2 %ID | tissue uptake dose at 2 h ([4]; female, Kidney): 5 ± 3 %ID | tissue uptake dose at 4 h ([4]; female, Kidney): 3 ± 3 %ID | tissue uptake dose at 6 h ([4]; female, Kidney): 3 ± 3 %ID | tissue uptake dose at 24 h ([4]; female, Kidney): 5 ± 5 %ID | tissue uptake dose at 2 h ([4]; female, Liver): 6 ± 2 %ID | tissue uptake dose at 4 h ([4]; female, Liver): 3 ± 1 %ID | tissue uptake dose at 6 h ([4]; female, Liver): 3 ± 2 %ID | tissue uptake dose at 24 h ([4]; female, Liver): 2 ± 2 %ID | tissue uptake dose at 2 h ([4]; female, Lower colon): 1.4 ± 0.8 %ID | tissue uptake dose at 4 h ([4]; female, Lower colon): 1 ± 0.9 %ID | tissue uptake dose at 6 h ([4]; female, Lower colon): 0.8 ± 0.7 %ID | tissue uptake dose at 24 h ([4]; female, Lower colon): 20 ± 15 %ID | tissue uptake dose at 2 h ([4]; female, Upper colon): 1.1 ± 0.6 %ID | tissue uptake dose at 4 h ([4]; female, Upper colon): 6 ± 12 %ID | tissue uptake dose at 6 h ([4]; female, Upper colon): 19 ± 17 %ID | tissue uptake dose at 24 h ([4]; female, Upper colon): 15 ± 10 %ID | tissue uptake dose at 2 h ([4]; female, Urinary bladder): 4 ± 7 %ID | tissue uptake dose at 4 h ([4]; female, Urinary bladder): 1 ± 2 %ID | tissue uptake dose at 6 h ([4]; female, Urinary bladder): 0.3 ± 0.3 %ID | tissue uptake dose at 24 h ([4]; female, Urinary bladder): 0.2 ± 0.2 %ID | activity in liver and kidneys [4]: over 3 % of injected activity | injected activity excreted via bile [4]: Up to 40% | route of excretion [4]: predominantly hepatobiliary excretion | tissue uptake dose at 2 h ([4]; male, Gall bladder): 2 ± 2 %ID | tissue uptake dose at 4 h ([4]; male, Gall bladder): 2 ± 2 %ID | tissue uptake dose at 6 h ([4]; male, Gall bladder): 2 ± 2 %ID | tissue uptake dose at 24 h ([4]; male, Gall bladder): 2.2 ± 0.3 %ID | tissue uptake dose at 2 h ([4]; male, Jejunum): 12 ± 12 %ID | tissue uptake dose at 4 h ([4]; male, Jejunum): 9 ± 9 %ID | tissue uptake dose at 6 h ([4]; male, Jejunum): 9 ± 19 %ID | tissue uptake dose at 24 h ([4]; male, Jejunum): 10 ± 1 %ID | tissue uptake dose at 2 h ([4]; male, Kidney): 2.9 ± 0.9 %ID | tissue uptake dose at 4 h ([4]; male, Kidney): 3 ± 3 %ID | tissue uptake dose at 6 h ([4]; male, Kidney): 3 ± 1 %ID | tissue uptake dose at 24 h ([4]; male, Kidney): 2.4 ± 0.9 %ID | tissue uptake dose at 2 h ([4]; male, Liver): 4 ± 2 %ID | tissue uptake dose at 4 h ([4]; male, Liver): 2.2 ± 0.8 %ID | tissue uptake dose at 6 h ([4]; male, Liver): 1.8 ± 0.6 %ID | tissue uptake dose at 24 h ([4]; male, Liver): 2 ± 1 %ID | tissue uptake dose at 2 h ([4]; male, Lower colon): 0.6 ± 0.5 %ID | tissue uptake dose at 4 h ([4]; male, Lower colon): 0.2 ± 0.2 %ID | tissue uptake dose at 6 h ([4]; male, Lower colon): 0.5 ± 0.4 %ID | tissue uptake dose at 24 h ([4]; male, Lower colon): 0.4 ± 0.2 %ID | tissue uptake dose at 2 h ([4]; male, Upper colon): 1.1 ± 1 %ID | tissue uptake dose at 4 h ([4]; male, Upper colon): 8 ± 3 %ID | tissue uptake dose at 6 h ([4]; male, Upper colon): 20 ± 13 %ID | tissue uptake dose at 24 h ([4]; male, Upper colon): 7 ± 8 %ID | tissue uptake dose at 2 h ([4]; male, Urinary bladder): 4 ± 6 %ID | tissue uptake dose at 4 h ([4]; male, Urinary bladder): 2 ± 1 %ID | tissue uptake dose at 6 h ([4]; male, Urinary bladder): 0.6 ± 0.4 %ID | tissue uptake dose at 24 h ([4]; male, Urinary bladder): 0.16 ± 0.07 %ID | radionuclide-associated dose burden per patient [5]: 3-6 mSv/study | Absorbed dose, Ovaries ([5]; iv): 0.018 ± 0.008 | Absorbed dose, Testes ([5]; iv): 0.004 ± 0.005 | Absorbed dose, Uterus ([5]; iv): 0.020 ± 0.008

Compound: O=C(O)CC[C@H](NC(=O)N[C@@H](CCCCNC(=O)c1ccc([18F])nc1)C(=O)O)C(=O)O [^18F-DCFPyL]
sensitivity in the detection of LN metastases [6]: 40%

Compound: O=C([O-])CN(CCN(CC(=O)[O-])Cc1cc(CCC(=O)NCCCCCC(=O)NCCCC[C@H](NC(=O)N[C@@H](CCC(=O)O)C(=O)O)C(=O)O)ccc1[O-])Cc1cc(CCC(=O)O)ccc1[O-].[68Ga+3].[OH3+] [^68Ga-PSMA]
sensitivity in the detection of LN metastases [6]: 61%
